From patent US20200317768A1 (published 2020) come the findings set out here.

Usually Kd stands for the equilibrium constant for the complex coming apart.

For test [1], the target named is T1, human FcγRIIb extracellular domain, C-terminal His-tag (human, UniProt P31994 43-217).
T1 construct: also called humanFcgRIIb; not shown: His-tag added to C-terminus
T1 sequence: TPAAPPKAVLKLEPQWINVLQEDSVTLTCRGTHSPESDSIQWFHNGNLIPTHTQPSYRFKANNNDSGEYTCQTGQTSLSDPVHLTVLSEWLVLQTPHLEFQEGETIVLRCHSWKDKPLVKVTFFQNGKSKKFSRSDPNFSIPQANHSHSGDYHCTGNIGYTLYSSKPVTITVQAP
The test can be described thus: SPR (BIACORE); KD of SG1 / KD of variant. (In SPR one partner is held on a chip, and binding of the other changes the refractive index at the surface.)

Test [2] concerns the target T2, human FcγRIIaR extracellular domain, C-terminal His-tag (human, UniProt P12318 34-217).
T2 construct: also called human FcγRIIa (type R); FcgRIIaR; not shown: His-tag added to C-terminus
T2 chain: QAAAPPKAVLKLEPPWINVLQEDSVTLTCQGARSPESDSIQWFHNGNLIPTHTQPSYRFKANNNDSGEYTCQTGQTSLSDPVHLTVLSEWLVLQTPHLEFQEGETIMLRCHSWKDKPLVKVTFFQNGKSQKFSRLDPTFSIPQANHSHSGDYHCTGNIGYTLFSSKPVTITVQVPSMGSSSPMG
The test is described as follows: SPR (BIACORE); KD of SG1 / KD of variant.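 Note: relative to parent M103205H795-SG1 carrying the SG1 human heavy chain constant region.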

For test [3], the target named is T3, cynomolgus monkey FcγRIIa2 extracellular domain, C-terminal His-tag (cynomolgus monkey).
T3 construct: also called cyno FcγRIIa2; cynoFcgRIIa2; not shown: His-tag added to C-terminus
T3 chain: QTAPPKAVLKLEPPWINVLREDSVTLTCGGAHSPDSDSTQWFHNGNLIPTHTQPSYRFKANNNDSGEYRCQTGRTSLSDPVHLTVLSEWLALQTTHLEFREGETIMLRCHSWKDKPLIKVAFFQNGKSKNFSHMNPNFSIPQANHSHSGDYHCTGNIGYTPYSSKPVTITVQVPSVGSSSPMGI
The test can be described thus: SPR (BIACORE); KD of SG1 / KD of variant.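 Note: relative to parent M103205H795-SG1 carrying the SG1 human heavy chain constant region.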

Test [4] has as its target T4, cynomolgus monkey FcγRIIIaS extracellular domain, C-terminal His-tag (cynomolgus monkey, UniProt A3RFZ7 21-206 (rhesus entry)).
T4 construct: also called cyno FcγRIIIaS; cynoFcγRIIIaS; not shown: His-tag added to C-terminus
The test can be described thus: SPR (BIACORE); KD of SG1 / KD of variant.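 Note: relative to parent M103205H795-SG1 carrying the SG1 human heavy chain constant region.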

The target of test [5] is T5, cynomolgus monkey FcγRIIa3 extracellular domain, C-terminal His-tag (cynomolgus monkey).
T5 construct: also called cyno FcγRIIa3; cynoFcgRIIa3; not shown: His-tag added to C-terminus
T5 chain: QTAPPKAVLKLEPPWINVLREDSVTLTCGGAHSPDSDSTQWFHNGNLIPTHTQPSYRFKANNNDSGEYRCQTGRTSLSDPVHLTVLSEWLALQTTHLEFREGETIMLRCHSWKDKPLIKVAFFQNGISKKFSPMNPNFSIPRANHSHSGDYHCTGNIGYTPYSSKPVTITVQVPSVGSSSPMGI
The test is described as follows: SPR (BIACORE); KD of SG1 / KD of variant.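 Note: relative to parent M103205H795-SG1 carrying the SG1 human heavy chain constant region.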

Test [6] deals with T1, human FcγRIIb extracellular domain, …. The test can be described thus: SPR (BIACORE), antibody captured, FcγR analyte. The protocol: (§1) The kinetic analysis of interactions between these antibodies and FcγR was carried out using BIACORE® T200 or BIACORE® 4000 (GE Healthcare). HBS-EP+ (GE Healthcare) was used as the running buffer, and the measurement temperature was set to 25° C. A chip produced by immobilizing Protein A. Protein A/G or mouse anti-human IgG kappa light chain (BD Biosciences) onto a Series S Sensor Chip CM4 or CM5 (GE Healthcare) by the amine-coupling method was used. […] After the measurement, the antibody captured on the chip was washed off by allowing reaction with 10 mM glycine-HCl, pH1.5 and 25 mM NaOH so that the chip was regenerated and used repeatedly. The sensorgrams obtained as measurement results were analyzed by the 1:1 Langmuir binding model using the BIACORE® Evaluation Software to calculate the binding rate constant ka (L/mol/s) and dissociation rate constant kd (l/s), and the dissociation constant KD (mol/L) was calculated from these values. […] Regarding such interactions, KD values were calculated using the following 1:1 binding model described in BIACORE® T100 Software Handbook BR1006-48 Edition AE.
(§2) The behavior of interacting molecules according to the 1:1 binding model on BIACORE® can be described by Equation 1: Req=C·R max/(KD+C)+RI, wherein, Req is a plot of steady-state binding levels to analyte concentration. C is concentration, RI is bulk refractive index contribution in the sample, and Rmax is analyte binding capacity of the surface. When this equation is rearranged, KD can be expressed as Equation 2: KD=C·Rmax/(Req−RI)−C. KD can be calculated by substituting the values of Rmax, RI, and C into Equation 1 or Equation 2. From the current measurement conditions, RI=0, C=2 μmol/L can be used.

Test [7] concerns the target T2, human FcγRIIaR extracellular domain, …. The test can be described thus: SPR (BIACORE), antibody captured, FcγR analyte. The protocol: as §1, §2
The target of test [8] is T6, cynomolgus monkey FcγRIIa1 extracellular domain, C-terminal His-tag (cynomolgus monkey).
T6 construct: also called cyno FcγRIIa1; cynoFcgRIIa1; not shown: His-tag added to C-terminus
T6 chain: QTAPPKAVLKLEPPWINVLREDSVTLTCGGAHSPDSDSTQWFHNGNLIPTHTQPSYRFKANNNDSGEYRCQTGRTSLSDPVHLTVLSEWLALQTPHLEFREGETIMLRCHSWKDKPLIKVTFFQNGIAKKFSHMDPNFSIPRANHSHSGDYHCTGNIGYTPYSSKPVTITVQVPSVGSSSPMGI
The test can be described thus: SPR (BIACORE), antibody captured, FcγR analyte. Here is the method: as §1, §2

The target in test [9] is T3, cynomolgus monkey FcγRIIa2 …. The test can be described thus: SPR (BIACORE), antibody captured, FcγR analyte. Here is the method: as §1, §2
Test [10] deals with T7, human FcγRIIIaV extracellular domain, C-terminal His-tag (human, UniProt P08637 17-208).
T7 construct: also called FcgRIIIaV; not shown: His-tag added to C-terminus
T7 sequence (P08637 17-208 F176V): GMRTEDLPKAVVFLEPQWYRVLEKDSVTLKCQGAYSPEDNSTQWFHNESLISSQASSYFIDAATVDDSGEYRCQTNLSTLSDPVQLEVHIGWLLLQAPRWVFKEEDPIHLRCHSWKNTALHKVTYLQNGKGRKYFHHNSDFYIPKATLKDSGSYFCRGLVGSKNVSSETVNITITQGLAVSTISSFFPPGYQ
The test can be described thus: SPR (BIACORE), antibody captured, FcγR analyte. Here is the method: as §1, §2

The target of test [11] is T5, cynomolgus monkey FcγRIIa3 …. The test can be described thus: SPR (BIACORE), antibody captured, FcγR analyte. The protocol:
as §1, §2

T4 sequence (A3RFZ7 21-206): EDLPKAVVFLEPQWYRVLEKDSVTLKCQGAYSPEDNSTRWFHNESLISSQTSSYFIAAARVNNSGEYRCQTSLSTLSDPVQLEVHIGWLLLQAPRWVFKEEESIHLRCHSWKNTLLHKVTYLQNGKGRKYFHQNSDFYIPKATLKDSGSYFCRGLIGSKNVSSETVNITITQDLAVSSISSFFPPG

B1: MS_M103205H795-SG1/M103202L889-SK1 (antibody, human IgG1, kappa)
heavy: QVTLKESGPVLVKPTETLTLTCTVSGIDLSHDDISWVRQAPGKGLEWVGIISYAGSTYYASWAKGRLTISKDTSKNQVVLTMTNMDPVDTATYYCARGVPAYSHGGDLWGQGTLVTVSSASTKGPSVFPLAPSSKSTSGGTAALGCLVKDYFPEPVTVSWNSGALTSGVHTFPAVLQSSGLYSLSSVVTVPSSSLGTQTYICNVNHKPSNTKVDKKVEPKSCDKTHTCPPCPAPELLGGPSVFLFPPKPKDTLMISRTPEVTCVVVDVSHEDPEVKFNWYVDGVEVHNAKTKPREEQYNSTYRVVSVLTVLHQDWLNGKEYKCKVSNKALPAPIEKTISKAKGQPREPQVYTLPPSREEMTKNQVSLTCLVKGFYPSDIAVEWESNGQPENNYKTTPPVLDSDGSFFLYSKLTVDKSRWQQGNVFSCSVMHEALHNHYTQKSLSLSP
light: DIVMTQSPATLSLSPGERATLSCTSSQSVYHANWLSWFQQKPGQPPKLLIYWASTLAYGVPSRFSGSGSGTDFTLTISSLQPEDAATYYCAGGYGGGRYAFGQGTKVEIKRTVAAPSVFIFPPSDEQLKSGTASVVCLLNNFYPREAKVQWKVDNALQSGNSQESVTEQDSKDSTYSLSSTLTLSKADYEKHKVYACEVTHQGLSSPVTKSFNRGEC
notes: Parent antibody with SG1 human heavy chain constant region; also called MS1032LO06-SG1
Take B1: the “KD fold (SG1 = 1)” value in test [1], in test [2], in test [3], in test [4] and in test [5] was 1 fold each time. Moreover, the dissociation constant Kd in test [6] was 4600 nM; in test [7], 1100 nM; in [8], 3200 nM; in test [9], 5100 nM; in [10], 810 nM; in test [11], 1700 nM.

B2: M103205H795-MY201 / M103202L889-SK1 (antibody, human IgG1, kappa)
heavy: QVTLKESGPVLVKPTETLTLTCTVSGIDLSHDDISWVRQAPGKGLEWVGIISYAGSTYYASWAKGRLTISKDTSKNQVVLTMTNMDPVDTATYYCARGVPAYSHGGDLWGQGTLVTVSSASTKGPSVFPLAPSSKSTSGGTAALGCLVKDYFPEPVTVSWNSGALTSGVHTFPAVLQSSGLYSLSSVVTVPSSSLGTQTYICNVNHKPSNTKVDKKVEPKSCDKTHTCPPCPAPELLNGPSVFLFPPKPKDTLMISRTPEVTCVVVDVSDEDPEVKFNWYVDGVEVHNAKTKPREEQYNSTYRVVSVLTVLHQDWLNGKEYKCKVSNKALPKPIEKTISKAKGQPREPQVYTLPPSREEMTKNQVSLTCLVKGFYPSDIAVEWESNGQPENNYKTTPPVLDSDGSFFLYSKLTVDKSRWQQGNVFSCSVMHEALHNHYTQKSLSLSP
light: DIVMTQSPATLSLSPGERATLSCTSSQSVYHANWLSWFQQKPGQPPKLLIYWASTLAYGVPSRFSGSGSGTDFTLTISSLQPEDAATYYCAGGYGGGRYAFGQGTKVEIKRTVAAPSVFIFPPSDEQLKSGTASVVCLLNNFYPREAKVQWKVDNALQSGNSQESVTEQDSKDSTYSLSSTLTLSKADYEKHKVYACEVTHQGLSSPVTKSFNRGEC
notes: CH with G236N/H268D/A330K against SG1 (EU numbering); also called MS1032LO06-MY201
For B2, the “KD fold (SG1 = 1)” value in test [1] is 4.2 fold; in test [2], 0.6 fold; in test [3], 3.6 fold; in [4], 0.06 fold; in test [5], 4.4 fold. The Kd in [6] turned out to be 1100 nM; in test [7], 1900 nM; in [8] it was 1400 nM; in [9], 1400 nM; in [10], 24000 nM; in [11] it was 3900 nM.

B3: M103205H795-MY101 / M103202L889-SK1 (antibody, human IgG1, kappa)
heavy: QVTLKESGPVLVKPTETLTLTCTVSGIDLSHDDISWVRQAPGKGLEWVGIISYAGSTYYASWAKGRLTISKDTSKNQVVLTMTNMDPVDTATYYCARGVPAYSHGGDLWGQGTLVTVSSASTKGPSVFPLAPSSKSTSGGTAALGCLVKDYFPEPVTVSWNSGALTSGVHTFPAVLQSSGLYSLSSVVTVPSSSLGTQTYICNVNHKPSNTKVDKKVEPKSCDKTHTCPPCPAPELLNGPSVFLFPPKPKDTLMISRTPEVTCVVVDVSEEDPEVKFNWYVDGVEVHNAKTKPREEQYNSTYRVVSVLTVLHQDWLNGKEYKCKVSNKALPKPIEKTISKAKGQPREPQVYTLPPSREEMTKNQVSLTCLVKGFYPSDIAVEWESNGQPENNYKTTPMVLDSDGSFFLYSKLTVDKSRWQQGNVFSCSVMHEALHNHYTQKSLSLSP
light: DIVMTQSPATLSLSPGERATLSCTSSQSVYHANWLSWFQQKPGQPPKLLIYWASTLAYGVPSRFSGSGSGTDFTLTISSLQPEDAATYYCAGGYGGGRYAFGQGTKVEIKRTVAAPSVFIFPPSDEQLKSGTASVVCLLNNFYPREAKVQWKVDNALQSGNSQESVTEQDSKDSTYSLSSTLTLSKADYEKHKVYACEVTHQGLSSPVTKSFNRGEC
notes: CH with G236N/H268E/A330K/P396M against SG1 (EU numbering); also called MS1032LO06-MY101
As for B3, the “KD fold (SG1 = 1)” value came out at 9.4 fold in test [1]; 1.3 fold in test [2]; 4.3 fold in test [3]; 0.11 fold in test [4]; 4.7 fold in [5]. For the same molecule, the Kd is 490 nM in test [6]; 870 nM in test [7]; 1100 nM in [8]; 1200 nM in test [9]; 11000 nM in test [10]; 3600 nM in [11].

B4: M103205H795-MY205 / M103202L889-SK1 (antibody, human IgG1, kappa)
heavy: QVTLKESGPVLVKPTETLTLTCTVSGIDLSHDDISWVRQAPGKGLEWVGIISYAGSTYYASWAKGRLTISKDTSKNQVVLTMTNMDPVDTATYYCARGVPAYSHGGDLWGQGTLVTVSSASTKGPSVFPLAPSSKSTSGGTAALGCLVKDYFPEPVTVSWNSGALTSGVHTFPAVLQSSGLYSLSSVVTVPSSSLGTQTYICNVNHKPSNTKVDKKVEPKSCDKTHTCPPCPAPELLNGPSVFLFPPKPKDTLMISRTPEVTCVVVDVSDEDPEVKFNWYVDGVEVHNAKTKPREELYNSTYRVVSVLTVLHQDWLNGKEYKCKVSNKALPKPIEKTISKAKGQPREPQVYTLPPSREEMTKNQVSLTCLVKGFYPSDIAVEWESNGQPENNYKTTPPVLDSDGSFFLYSKLTVDKSRWQQGNVFSCSVMHEALHNHYTQKSLSLSP
light: DIVMTQSPATLSLSPGERATLSCTSSQSVYHANWLSWFQQKPGQPPKLLIYWASTLAYGVPSRFSGSGSGTDFTLTISSLQPEDAATYYCAGGYGGGRYAFGQGTKVEIKRTVAAPSVFIFPPSDEQLKSGTASVVCLLNNFYPREAKVQWKVDNALQSGNSQESVTEQDSKDSTYSLSSTLTLSKADYEKHKVYACEVTHQGLSSPVTKSFNRGEC
notes: CH with G236N/H268D/Q295L/A330K against SG1 (EU numbering); also called MS1032LO06-MY205
Take B4: the “KD fold (SG1 = 1)” value is 8.2 fold in [1]; 0.8 fold in test [2]; 4.6 fold in test [3]; 0.06 fold in test [4]; 5.7 fold in test [5]. The equilibrium dissociation constant (Kd) in [6] was 560 nM; in test [7], 1300 nM; in [8], 900 nM; in [9], 1100 nM; in test [10], 13000 nM; in test [11], 3000 nM.
